Source: US20200055896A1, “SUBSTRATES RECOGNIZED BY FIBROBLAST ACTIVATION PROTEIN (FAP) AND METHODS OF USING THE SAME” (GENENTECH, INC., priority 2017, published 2020)
No end group written: not given here.

Assays:
Format in all cases: biochemical
recombinant human FAP = target: T1, recombinant human FAP (Homo sapiens, UniProt Q12884); assay: FRET-quench assay: probe cleavage by recombinant human FAP; settings: 1 nM enzyme
T1 construct: (residues L26-D760 and L26-D761, respectively); octa-His (N); made in house; host or cells: transiently transfected CHO cells (conditioned media)
T1 sequence (Q12884 26-760): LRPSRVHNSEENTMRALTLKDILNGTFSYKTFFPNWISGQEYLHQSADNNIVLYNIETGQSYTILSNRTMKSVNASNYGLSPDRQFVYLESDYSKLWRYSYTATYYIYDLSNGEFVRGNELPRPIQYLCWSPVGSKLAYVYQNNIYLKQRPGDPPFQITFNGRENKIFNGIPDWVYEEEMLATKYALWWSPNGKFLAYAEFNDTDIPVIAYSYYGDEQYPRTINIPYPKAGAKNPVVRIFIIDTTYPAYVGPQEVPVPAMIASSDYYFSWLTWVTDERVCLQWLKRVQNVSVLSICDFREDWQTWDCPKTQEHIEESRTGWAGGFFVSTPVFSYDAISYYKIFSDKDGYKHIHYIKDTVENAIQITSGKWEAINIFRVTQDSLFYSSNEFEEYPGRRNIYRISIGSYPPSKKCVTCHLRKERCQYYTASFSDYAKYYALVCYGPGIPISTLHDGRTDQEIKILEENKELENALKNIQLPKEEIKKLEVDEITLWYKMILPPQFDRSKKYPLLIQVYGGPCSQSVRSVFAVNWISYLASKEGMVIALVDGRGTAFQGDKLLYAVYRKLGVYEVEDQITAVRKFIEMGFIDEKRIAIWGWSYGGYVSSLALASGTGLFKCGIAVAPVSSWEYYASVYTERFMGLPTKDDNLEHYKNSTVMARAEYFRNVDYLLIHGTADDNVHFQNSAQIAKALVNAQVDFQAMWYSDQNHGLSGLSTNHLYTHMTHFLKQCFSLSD
Source text: (§1) Human prolyl oligopeptidase (PREP, 4308-SE), DPPIV (1180-SE), DPP9 (5419-SE), and DPPII/DPP7 (3438-SE) proteins were purchased from R&D Systems. Human DPP8 (BML-SE527) protein was purchased from Enzo Life Sciences. N-terminal octa-His-tagged human and mouse FAP proteins containing the extracellular domain (residues L26-D760 and L26-D761, respectively) were purified from the conditioned media of transiently-transfected CHO cells, by immobilized metal affinity chromatography (IMAC), followed by size exclusion chromatography (SEC).
(§2) Peptides of the region flanking the C-terminal human FGF21 cleavage site (VGPSQG) or a variant with D-alanine at P2 (VaPSQG) were synthesized (Anaspec, Inc.), containing an amine-terminal donor (HyLite Fluor 488 or Cy5.5 for aP NIRF) and a dark quencher-acceptor (QXL 520 or QSY21 for aP NIRF) conjugated to a supplementary C-terminal lysine. ANPFAP (Bioconjugate Chem 23:1704-11) and aP NIRF were synthesized by CPC Scientific (Sunnyvale, Calif.). Assays were conducted at 37° C. in 50 mM HEPES (pH 7.2), 150 mM NaCl, 1 mM EDTA, 0.1 mg/ml BSA. The excitation/emission wavelengths of cleaved peptide are 490/520 nm or 675/695 nm for ANPFAP and aP NIRF. Fluorescence was monitored on a Tecan M1000 Pro plate reader in kinetic mode. Except where indicated otherwise, measurements of serum or plasma FAP activity were performed with the peptide substrate concentration at 6 μM and a 10-fold dilution of serum or plasma in assay buffer.

FAP = target: T2, FAP (Homo sapiens, UniProt Q12884); assay: aP cleavage in anti-FAP or control IgG-immunodepleted human serum; settings: after FAP immunodepletion; serum diluted 2.5-fold
T2 construct: the extracellular domain encoding the active enzyme can be shed from the cell surface; tissue Discovery Life Sciences, Inc. (part of the samples); host or cells: human serum (healthy donors, cirrhosis patients)
T2 sequence (Q12884 24-760 limits assumed): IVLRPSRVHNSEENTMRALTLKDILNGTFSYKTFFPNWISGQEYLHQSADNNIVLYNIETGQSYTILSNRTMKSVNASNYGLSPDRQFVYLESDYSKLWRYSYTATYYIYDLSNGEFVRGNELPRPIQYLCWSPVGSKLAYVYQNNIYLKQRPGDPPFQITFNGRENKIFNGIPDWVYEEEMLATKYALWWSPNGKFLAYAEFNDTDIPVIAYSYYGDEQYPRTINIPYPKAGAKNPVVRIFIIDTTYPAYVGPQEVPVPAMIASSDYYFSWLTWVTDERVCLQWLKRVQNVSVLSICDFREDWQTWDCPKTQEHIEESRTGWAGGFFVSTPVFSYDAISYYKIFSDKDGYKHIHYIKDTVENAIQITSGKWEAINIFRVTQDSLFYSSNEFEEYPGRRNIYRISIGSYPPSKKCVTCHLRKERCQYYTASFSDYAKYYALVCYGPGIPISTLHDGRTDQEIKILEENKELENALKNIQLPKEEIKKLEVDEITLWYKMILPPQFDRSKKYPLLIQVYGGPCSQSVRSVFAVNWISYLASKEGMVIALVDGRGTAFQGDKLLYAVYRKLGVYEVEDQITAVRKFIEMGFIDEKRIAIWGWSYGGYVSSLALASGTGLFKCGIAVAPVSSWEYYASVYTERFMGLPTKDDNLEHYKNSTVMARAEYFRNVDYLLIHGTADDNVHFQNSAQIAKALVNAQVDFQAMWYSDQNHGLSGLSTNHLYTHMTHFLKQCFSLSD
Experimental: (§3) Mouse plasma samples were prepared in K3-EDTA MiniCollect tubes (Greiner Bio-One, 450475) and frozen immediately at −80° C. prior to analysis. Human serum samples were obtained from healthy donors or purchased from Discovery Life Sciences, Inc. (Los Osos, Calif.).
as §2

[1] = test system: human S9 and S28 peptidases; assay: aP cleavage by a panel of recombinant human prolyl peptidases; settings: each recombinant peptidase at 2.5 μg/ml
Source text: as §1
as §2, with “Except where indicated otherwise, measurements of serum or plasma FAP activity were performed with the peptide substrate concentration at 6 μM and a 10-fold dilution of serum or plasma in assay buffer.” left out

[2] = test system: human or mouse recombinant FAP; assay: Michaelis-Menten kinetics of GP and aP cleavage by recombinant FAP; settings: corrected for active enzyme concentration
Experimental: Michaelis-Menten kinetic measurements were carried out using 5 nM human or mouse recombinant FAP, with a series of peptide substrate titrations. Initial rate of substrate hydrolysis was determined using the Magellan software on a Tecan M1000 Pro plate reader and kinetic parameters were modeled using nonlinear regression analysis with GraphPad Prism software. Standard error was calculated from three experimental replicates.
As described by Copeland ((2000) Enzymes: a practical introduction to structure, mechanism, and data analysis, 2nd ed., J. Wiley, New York) the active enzyme concentration was determined from the x-intercept.

serum FAP = target: T3, serum FAP (Homo sapiens, UniProt Q12884); assay: aP probe fluorescence assay of FAP activity in human serum versus FAP ELISA
T3 construct: the extracellular domain encoding the active enzyme can be shed from the cell surface; tissue Discovery Life Sciences, Inc. (part of the samples); host or cells: human serum (healthy donors, cirrhosis patients)
T3 sequence (Q12884 24-760 limits assumed): T2 sequence (Q12884 24-760 limits assumed)
Experimental: as §3
Serum FAP concentration was measured using the human FAP DuoSet ELISA kit (R&D Systems, DY3715), according to the manufacturer's protocol.
as §2

Substance | cleavage by recombinant human FAP (recombinant human FAP) | cleavage signal in human serum (FAP) | cleavage by human S9 and S28 peptidases [1] | Km relative to parental GP peptide [2] | decrease in kcat relative to GP peptide [2] | lowest FAP level detected with the activity assay (serum FAP) [ng/mL]
GP probe: human FGF21 cleavage-site peptide VGPSQG with amine-terminal HyLite Fluor 488 donor and QXL 520 quencher on supplementary C-terminal lysine ({HyLite Fluor 488}-VGPSQGK(QXL 520)) | readily cleaved | – | – | – | – | –
aP probe: FGF21-based peptide VaPSQG (D-alanine at P2) with HyLite Fluor 488 donor and QXL 520 quencher | clearly detectable | signal is lost | did not exhibit an ability to cleave | essentially unchanged | seven to eight-fold decrease | 63
